Patent US20070048219A1 (Genentech, published 2007)
Where “and” joins values, the source holds several entries; their conditions need not be identical. Equal values may be shown once.

Key:
rhesus IL-8 = molecular target: T1, rhesus IL-8 (rhesus, UniProt P67813 23-101, limits assumed); assay: cell-based or functional assay
T1 sequence (looked up): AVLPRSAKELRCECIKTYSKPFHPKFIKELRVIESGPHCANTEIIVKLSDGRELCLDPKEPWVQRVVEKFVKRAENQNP

human monomeric IL-8 = human monomeric IL-8 (human); assay: cell-based or functional assay
[1] = molecular target: T2, recombinant human IL-8, (ser-IL-8)72 (human, UniProt P10145 28-99, 125I label on tyrosine in the tracer form; the letters do not carry it); assay: competition binding: the Fab is varied (Cold Ligand, nM) and blocks 125I-IL-8 binding to IL-8 receptors on human neutrophils
T2 construct: also called human wild type IL-8; HuIL-8
T2 sequence: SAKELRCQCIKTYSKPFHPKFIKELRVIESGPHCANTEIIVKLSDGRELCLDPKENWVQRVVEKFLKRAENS
Method: (§1) The periplasmic fraction was collected and passed over a Hi-Trap Protein-G column (Pharmacia, Piscataway, N.J.) followed by a desalting and concentration step. The protein was analyzed by SDS-PAGE, mass spectrometry and amino acid analysis.

rabbit IL-8 = molecular target: T3, rabbit IL-8 (rabbit, UniProt P19874 23-101, limits assumed); assay: cell-based or functional assay
T3 sequence (looked up): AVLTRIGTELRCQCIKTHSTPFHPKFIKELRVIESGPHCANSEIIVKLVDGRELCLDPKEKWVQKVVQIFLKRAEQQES

[2] = molecular target: T2, recombinant human IL-8, (ser-IL-8)72; assay: cell-based or functional assay
[3] = molecular target: T2, recombinant human IL-8, (ser-IL-8)72; assay: competition binding: the Fab inhibits binding of 125I-IL-8 to human neutrophils; Bound/Total against antibody competitor (nM)
[4] = molecular target: T2, recombinant human IL-8, (ser-IL-8)72; assay: competition binding: the Fab is varied (Cold Ligand, nM) and blocks 125I-IL-8 binding to IL-8 receptors on human neutrophils; remark: listed apart in the source
Description: The displacement curves from a representative binding experiment performed in duplicate is depicted in FIG. 38.

[5] = molecular target: T2, recombinant human IL-8, (ser-IL-8)72; assay: competition binding: the Fab inhibits binding of 125I-IL-8 to human neutrophils; Bound/Total against antibody competitor (nM); remark: listed apart in the source
[6] = molecular target: T2, recombinant human IL-8, (ser-IL-8)72; assay: KinExA, IL-8-coated beads, solution equilibrium
Method: (§2) The beads were resuspended in assay buffer (0.1% bovine serum albumin in PBS) to a final volume of 30 ml.
(§3) The equilibrium constant (Kd) was calculated using the software provided by Sapidyne Instruments Inc.

[7] = molecular target: T2, recombinant human IL-8, (ser-IL-8)72; assay: competition: inhibition of IL-8 binding to human neutrophils (experiment of FIG. 54B); Fab control of FIG. 54B
[8] = molecular target: T2, recombinant human IL-8, (ser-IL-8)72; assay: KinExA, IL-8-coated beads
Method: as §2, §3

[9] = molecular target: T2, recombinant human IL-8, (ser-IL-8)72; assay: competition binding: the antibody inhibits binding of 125I-IL-8 to human neutrophils; Bound/Total against cold ligand (nM)
Method: Neutrophils were prepared by using Mono-Poly Resolving Medium (M-PRM) (Flow Lab. Inc., McLean. Va.). Briefly fresh, heparinized human blood was loaded onto M-PRM at a ratio of blood to medium, 3.5:3.0, and centrifuged at 300×g for 30 min at room tem perature. Neutrophils enriched at the middle layer were collected and washed once in PBS. […] The receptor binding assay was done as follows. […] The supernatant was removed by aspiration and the radioactivity associated with the pellet was counted in a gamma counter.

[10] = molecular target: T2, recombinant human IL-8, (ser-IL-8)72; assay: competition: inhibition of 125I-IL-8 binding to human neutrophils
[11] = molecular target: T2, recombinant human IL-8, (ser-IL-8)72; assay: competition: inhibition of iodinated IL-8 binding to human neutrophils
PF4 = molecular target: T4, PF4 (UniProt P02776 32-101); assay: ELISA, cytokines coated onto plates
T4 construct: also called platelet factor 4
T4 sequence (looked up): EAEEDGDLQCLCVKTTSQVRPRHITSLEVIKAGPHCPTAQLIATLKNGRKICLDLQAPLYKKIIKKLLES

β-TG = molecular target: T5, β-TG (UniProt P02775 48-128); assay: ELISA, cytokines coated onto plates
T5 construct: also called b-TG
T5 sequence (looked up): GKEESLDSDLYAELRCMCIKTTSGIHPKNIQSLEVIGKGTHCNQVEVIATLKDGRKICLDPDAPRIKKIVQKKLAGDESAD

C5a = molecular target: T6, C5a (UniProt P01031 678-751); assay: ELISA, cytokines coated onto plates
T6 sequence (looked up): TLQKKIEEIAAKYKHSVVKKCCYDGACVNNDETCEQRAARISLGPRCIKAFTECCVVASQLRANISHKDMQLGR

TNF = TNF (UniProt P01375 77-233, limits assumed); assay: ELISA, cytokines coated onto plates
Sequence of TNF (P01375 77-233 limits assumed): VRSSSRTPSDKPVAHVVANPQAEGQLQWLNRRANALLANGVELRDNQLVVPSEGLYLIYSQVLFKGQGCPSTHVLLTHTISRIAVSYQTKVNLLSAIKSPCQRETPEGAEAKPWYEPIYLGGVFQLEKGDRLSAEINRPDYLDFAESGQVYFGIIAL

MGSA = molecular target: T7, MGSA (UniProt P09341 35-107); assay: ELISA, cytokines coated onto plates
T7 sequence (looked up): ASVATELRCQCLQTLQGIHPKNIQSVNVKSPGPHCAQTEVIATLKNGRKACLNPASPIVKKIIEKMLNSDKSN

[12] = molecular target: T2, recombinant human IL-8, (ser-IL-8)72; assay: KinExA equilibrium constant; column head Kd
Method: as §2, §3

[13] = molecular target: T2, recombinant human IL-8, (ser-IL-8)72; assay: competition binding: the antibody is varied (Cold Ligand, nM) and blocks 125I-IL-8 binding to IL-8 receptors on human neutrophils
Method: as §1

[14] = molecular target: T2, recombinant human IL-8, (ser-IL-8)72; assay: competitive RIP with unlabeled IL-8, Scatchard analysis
[15] = molecular target: T2, recombinant human IL-8, (ser-IL-8)72; assay: competition phage ELISA on plate-bound K64C IL-8
Method: The first step of the assay requires that the concentrations of the phage carrying the wild type and mutated antibodies be normalized, allowing a comparison of the relative affinities of each antibody. […] The plates were washed once more and stored covered at 4° C. with 200 ul of PBS/well. […] The phage were resuspended in 500 ul […] Tris-HCl pH 7.5, 1 mM EDTA and […] NaCl and held at 4° C. for no longer than 3 hours. […] The phage were next serially diluted in 3 fold steps down the plate from well A through H. The plates were incubated for I hour at 25° C. followed by nine quick washes with PBS containing 0.05% Tween-20 (PBST).

B1: humanized 6G425 F(ab)-9 (humanized 6G4V11 Fab) (Fab, V domains shown)
VH: EVQLVQSGGGLVQPGGSLRLSCAASGYSFSSHYMHWVRQAPGKGLEWVGYIDPSNGETTYNQKFKGRFTLSRDNSKNTAYLQMNSLRAEDTAVYYCARGDYRYNGDWFFDVWGQGTLVTVSS
VL: DIQMTQSPSSLSASVGDRVTITCRSSQSLVHGIGNTYLHWYQQKPGKAPKLLIYKVSNRFSGVPSRFSGSGSGTDFTLTISSLQPEDFATYYCSQSTHVPLTFGQGTKVEIKR
notes: F(ab)-6 with murine Gln for Glu at H6; also called version 11; 6G4.2.5V11
In the case of B1, the “IC50, inhibition of IL-8 mediated neutrophil chemotaxis” value (rhesus IL-8) is reported as ~22 nM, the “IC50, inhibition of IL-8 mediated neutrophil chemotaxis” value (human monomeric IL-8) is reported as ~15 nM and the “IC50 (read off the curve)” value [1] is reported as ~6 nM.

B2: 6G4V11N35A Fab (Fab, V domains shown)
VH: EVQLVQSGGGLVQPGGSLRLSCAASGYSFSSHYMHWVRQAPGKGLEWVGYIDPSNGETTYNQKFKGRFTLSRDNSKNTAYLQMNSLRAEDTAVYYCARGDYRYNGDWFFDVWGQGTLVTVSS
VL: DIQMTQSPSSLSASVGDRVTITCRSSQSLVHGIGATYLHWYQQKPGKAPKLLIYKVSNRFSGVPSRFSGSGSGTDFTLTISSLQPEDFATYYCSQSTHVPLTFGQGTKVEIKR
notes: also called 6G4.2.5V11N35A Fab; Fab control
For B2, the “average IC50, inhibition of IL-8 mediated neutrophil chemotaxis” value (rabbit IL-8) was 5 nM, the “average IC50, inhibition of IL-8 mediated neutrophil chemotaxis” value (human monomeric IL-8) was 1 nM and the “IC50, blocking IL-8 mediated chemotaxis” value [2] was 0.8 nM. The “average IC50, inhibition of human IL-8 mediated neutrophil chemotaxis” value [2] was 2.7 nM, the IC50 [3] was 0.264 nM and 0.468 nM and the “IC50 (read off the curve)” value [4] was 1 to 2 nM. It also gave an IC50 [5] of 0.294 nM, a Kd [6] of ~0.114 nM and an IC50 [7] of 0.802 nM.

B3: full length 6G4V11N35E IgG1 (antibody, V domains shown, not shown: a dimerising Fc or GST)
VH: EVQLVQSGGGLVQPGGSLRLSCAASGYSFSSHYMHWVRQAPGKGLEWVGYIDPSNGETTYNQKFKGRFTLSRDNSKNTAYLQMNSLRAEDTAVYYCARGDYRYNGDWFFDVWGQGTLVTVSS
VL: DIQMTQSPSSLSASVGDRVTITCRSSQSLVHGIGETYLHWYQQKPGKAPKLLIYKVSNRFSGVPSRFSGSGSGTDFTLTISSLQPEDFATYYCSQSTHVPLTFGQGTKVEIKR
notes: made in CHO cells
B3 was tested, and the “IC50, inhibition of IL-8 mediated human neutrophil chemotaxis” value [2] was 6 nM, the Kd [8] was ~0.049 nM and the IC50 [9] was 0.468 nM. The IC50 [10] was ~0.5 nM.

B4: humanized 6G425 F(ab)-6 (Fab, V domains shown)
VH: EVQLVESGGGLVQPGGSLRLSCAASGYSFSSHYMHWVRQAPGKGLEWVGYIDPSNGETTYNQKFKGRFTLSRDNSKNTAYLQMNSLRAEDTAVYYCARGDYRYNGDWFFDVWGQGTLVTVSS
VL: DIQMTQSPSSLSASVGDRVTITCRSSQSLVHGIGNTYLHWYQQKPGKAPKLLIYKVSNRFSGVPSRFSGSGSGTDFTLTISSLQPEDFATYYCSQSTHVPLTFGQGTKVEIKR
notes: also called version 8
In the case of B4, the IC50 [11] is reported as 34.6 nM.

B5: murine anti-rabbit IL-8 monoclonal antibody 6G4.2.5 (antibody, mouse IgG2a, V domains shown)
VH: EIQLQQSGPELMKPGASVKISCKASGYSFSSHYMHWVKQSHGKSLEWIGYIDPSNGETTYNQKFKGKATLTVDTSSSTANVHLSSLTSDDSAVYFCARGDYRYNGDWFFDVWGAGTTVTVSS
VL: DIVMTQTPLSLPVSLGDQASISCRSSQSLVHGIGNTYLHWYLQKPGQSPKLLIYKVSNRFSGVPDRFSGSGSGTDFTLRISRVEAEDLGLYFCSQSTHVPLTFGAGTKLELK
notes: full length murine IgG2a from hybridoma ATCC HB 11722; also called 6G4 murine mAb; intact murine 6G4.2.5 antibody
B5: no binding (PF4); no binding (β-TG); no binding (C5a). The binding result (TNF) was “no binding”, the binding result (MGSA) was “no binding” and the Kd [12] was 0.35 nM. For the same binder, the “IC50 (read off the curve)” value [13] was ~7 nM and the IC50 [10] was 5 nM.

B6: anti-IL-8 monoclonal antibody 5.12.14 (antibody, mouse IgG2a, V domains shown)
VH: EVQLVESGGGLVPPGGSLKLSCAASGFIFSSYGMSWVRQTPGKSLELVATINNNGDSTYYPDSVKGRFTISRDNAKNTLYLQMSSLKSEDTAMFYCARALISSATWFGYWGQGTLVTVSA
VL: DIVMTQSQKFMSTSVGDRVSVTCKASQNVGTNVAWYQQKPGQSPKALIYSSSYRYSGVPDRFTGSGSGTDFTLTISHVQSEDLADYFCQQYNIYPLTFGPGTKLELK
notes: murine IgG2a from hybridoma ATCC HB 11553
B6 showed a Kd [14] of 0.3 nM.

B7: h6G4V11 Y37A (CDR-L1), phage-displayed (Fab, V domains shown)
VH: EVQLVQSGGGLVQPGGSLRLSCAASGYSFSSHYMHWVRQAPGKGLEWVGYIDPSNGETTYNQKFKGRFTLSRDNSKNTAYLQMNSLRAEDTAVYYCARGDYRYNGDWFFDVWGQGTLVTVSS
VL: DIQMTQSPSSLSASVGDRVTITCRSSQSLVHGIGNTALHWYQQKPGKAPKLLIYKVSNRFSGVPSRFSGSGSGTDFTLTISSLQPEDFATYYCSQSTHVPLTFGQGTKVEIKR
notes: alanine-scan mutant of m36
B7: no binding [15].
